Experimental data as given in article PMC12263435, “Mechanistic basis for PYROXD1-mediated protection of the human tRNA ligase complex against oxidative inactivation” (Nature Structural & Molecular Biology, 2025).

Legend:
RTCB–PYROXD1 complex = molecular target: T1, RTCB–PYROXD1 complex (Homo sapiens, UniProt Q8WU10); test: cryo-EM structure, […] Å; assay type: binding; conditions: prepared with 0.5 mM NADH, 5 mM MgCl2, pH 8.0, redox state NAD+ inferred (charge-transfer complex), PYROXD1 active site
T1 construct: PYROXD1 (GST cut, E. coli) with RTCB (N-terminal tag cut by TEV, Sf9); 1:1 complex with Mg2+ in RTCB; with RNA-splicing ligase RtcB homolog
T1 sequence (Q8WU10 1-500): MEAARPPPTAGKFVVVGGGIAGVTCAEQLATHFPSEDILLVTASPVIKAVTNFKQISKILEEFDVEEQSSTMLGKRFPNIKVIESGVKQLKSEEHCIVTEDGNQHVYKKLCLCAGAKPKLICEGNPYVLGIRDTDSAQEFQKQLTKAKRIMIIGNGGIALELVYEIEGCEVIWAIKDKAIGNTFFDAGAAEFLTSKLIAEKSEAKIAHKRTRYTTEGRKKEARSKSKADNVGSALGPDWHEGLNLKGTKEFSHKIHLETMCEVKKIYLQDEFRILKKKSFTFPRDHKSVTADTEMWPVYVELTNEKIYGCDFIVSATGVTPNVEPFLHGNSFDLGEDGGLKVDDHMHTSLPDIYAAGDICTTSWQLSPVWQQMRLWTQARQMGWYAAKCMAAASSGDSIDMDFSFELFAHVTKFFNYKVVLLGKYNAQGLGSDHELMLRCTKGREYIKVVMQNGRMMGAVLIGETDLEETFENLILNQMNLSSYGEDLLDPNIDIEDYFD
T1 sequence (Q9Y3I0 1-505 partner): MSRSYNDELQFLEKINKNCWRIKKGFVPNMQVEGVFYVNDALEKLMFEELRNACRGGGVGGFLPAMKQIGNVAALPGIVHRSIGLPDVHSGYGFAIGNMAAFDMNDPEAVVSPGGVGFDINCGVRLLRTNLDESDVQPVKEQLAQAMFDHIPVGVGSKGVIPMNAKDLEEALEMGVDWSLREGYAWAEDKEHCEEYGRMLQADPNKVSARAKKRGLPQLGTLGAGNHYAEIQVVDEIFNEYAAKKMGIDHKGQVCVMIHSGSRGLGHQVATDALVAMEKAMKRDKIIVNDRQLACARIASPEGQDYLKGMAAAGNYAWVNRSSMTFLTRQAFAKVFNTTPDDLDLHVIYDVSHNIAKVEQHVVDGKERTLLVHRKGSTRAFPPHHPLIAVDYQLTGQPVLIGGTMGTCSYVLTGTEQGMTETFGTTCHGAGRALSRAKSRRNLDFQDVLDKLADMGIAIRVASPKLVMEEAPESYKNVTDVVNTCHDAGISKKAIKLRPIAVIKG

StrepII–GFP–RTCB = molecular target: T2, StrepII–GFP–RTCB (human, UniProt Q9Y3I0 1-505); test: pull-down; StrepII–GFP–RTCB (0.2 nmol) immobilised on MagStrep type 3 XT beads, 0.4 nmol PYROXD1; HEPES pH 8.0, 150 mM KCl, 0.1% Tween-20, 1 mM TCEP, 0.5 mM NADH, 2.5 mM MgCl2, 2.5 mM MnCl2; 30 min at 4 °C; SDS–PAGE, Coomassie Blue; conditions: both partners purified
T2 construct: human RTCB (UniProt Q9Y3I0), catalytic subunit of the tRNA ligase complex; inserted into the 438-Rgfp plasmid; a TEV site lies between GFP and RTCB; In the dissociation assay it is called 2× StrepII–GFP–RTCB; also called immobilized RTCB; 2× StrepII–GFP–RTCB; source: Sf9 insect cells (baculovirus), purified (Strep-Tactin, SEC); not shown: StrepII, N-terminal, kept; super folder green fluorescent …
T2 sequence: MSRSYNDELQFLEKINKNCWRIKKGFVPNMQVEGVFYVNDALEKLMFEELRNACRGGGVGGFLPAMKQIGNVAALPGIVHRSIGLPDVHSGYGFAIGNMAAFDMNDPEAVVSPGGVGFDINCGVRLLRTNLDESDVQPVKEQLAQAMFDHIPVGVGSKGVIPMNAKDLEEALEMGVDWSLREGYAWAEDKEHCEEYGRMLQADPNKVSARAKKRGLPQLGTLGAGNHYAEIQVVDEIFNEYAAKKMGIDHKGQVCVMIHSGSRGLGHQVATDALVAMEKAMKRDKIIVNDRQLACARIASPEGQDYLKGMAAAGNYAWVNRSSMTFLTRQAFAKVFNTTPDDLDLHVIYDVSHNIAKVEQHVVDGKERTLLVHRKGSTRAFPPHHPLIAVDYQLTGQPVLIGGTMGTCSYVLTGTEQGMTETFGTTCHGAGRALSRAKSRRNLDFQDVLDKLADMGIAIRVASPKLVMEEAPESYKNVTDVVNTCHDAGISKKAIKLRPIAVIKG

purified protein = substrate: NC(=O)C1=CN([C@@H]2O[C@H](COP(=O)(O)OP(=O)(O)OC[C@H]3O[C@@H](n4cnc5c(N)ncnc54)[C@H](O)[C@@H]3O)[C@@H](O)[C@H]2O)C=CC1; test: purified protein; assay type: biochemical, Homo sapiens; conditions: aerobic (O2 as acceptor), 20 mM Tris-HCl pH 8.0, 150 mM KCl, 0.05% Tween-20, 22 °C, text prints W293A, figure legend W239A

Molecule | binding result (StrepII–GFP–RTCB) | further results
NC(=O)c1ccc[n+]([C@@H]2O[C@H](COP(=O)(O)OP(=O)(O)OC[C@H]3O[C@@H](n4cnc5c(N)ncnc54)[C@H](O)[C@@H]3O)[C@@H](O)[C@H]2O)c1 [NAD^+] | – | cryo-EM structure, 3.3 Å (RTCB–PYROXD1 complex): NAD^+ interacts with residues Gly157, Ile158, Arg374, His410 and Thr412
Cc1cc2c(cc1C)N(C[C@H](O)[C@H](O)[C@H](O)COP(=O)(O)OP(=O)(O)OC[C@H]1O[C@@H](n3cnc4c(N)ncnc43)[C@H](O)[C@@H]1O)c1[nH]c(=O)[nH]c(=O)c1N2 [FADH^−] | – | cryo-EM structure, 3.3 Å (RTCB–PYROXD1 complex; redox state FADH- inferred): PYROXD1 coordinates FADH^− with residues including Gly18, Ala21, Thr42, Ala43
PYROXD1 D497A (enzyme, human, human PYROXD1 (UniProt Q8WU10) with D497A; source: E. coli BL21(DE3), purified (Glutathione Sepharose, 3C cleavage, SEC); not shown: GST, N-terminal, cleaved) MEAARPPPTAGKFVVVGGGIAGVTCAEQLATHFPSEDILLVTASPVIKAVTNFKQISKILEEFDVEEQSSTMLGKRFPNIKVIESGVKQLKSEEHCIVTEDGNQHVYKKLCLCAGAKPKLICEGNPYVLGIRDTDSAQEFQKQLTKAKRIMIIGNGGIALELVYEIEGCEVIWAIKDKAIGNTFFDAGAAEFLTSKLIAEKSEAKIAHKRTRYTTEGRKKEARSKSKADNVGSALGPDWHEGLNLKGTKEFSHKIHLETMCEVKKIYLQDEFRILKKKSFTFPRDHKSVTADTEMWPVYVELTNEKIYGCDFIVSATGVTPNVEPFLHGNSFDLGEDGGLKVDDHMHTSLPDIYAAGDICTTSWQLSPVWQQMRLWTQARQMGWYAAKCMAAASSGDSIDMDFSFELFAHVTKFFNYKVVLLGKYNAQGLGSDHELMLRCTKGREYIKVVMQNGRMMGAVLIGETDLEETFENLILNQMNLSSYGEDLLDPNIDIEAYFD | binds | –
PYROXD1 (Homo sapiens; W239A) (protein, full-length from HeLa cDNA, N-terminal GST cut off with 3C protease; E. coli BL21(DE3); FAD-containing) MEAARPPPTAGKFVVVGGGIAGVTCAEQLATHFPSEDILLVTASPVIKAVTNFKQISKILEEFDVEEQSSTMLGKRFPNIKVIESGVKQLKSEEHCIVTEDGNQHVYKKLCLCAGAKPKLICEGNPYVLGIRDTDSAQEFQKQLTKAKRIMIIGNGGIALELVYEIEGCEVIWAIKDKAIGNTFFDAGAAEFLTSKLIAEKSEAKIAHKRTRYTTEGRKKEARSKSKADNVGSALGPDAHEGLNLKGTKEFSHKIHLETMCEVKKIYLQDEFRILKKKSFTFPRDHKSVTADTEMWPVYVELTNEKIYGCDFIVSATGVTPNVEPFLHGNSFDLGEDGGLKVDDHMHTSLPDIYAAGDICTTSWQLSPVWQQMRLWTQARQMGWYAAKCMAAASSGDSIDMDFSFELFAHVTKFFNYKVVLLGKYNAQGLGSDHELMLRCTKGREYIKVVMQNGRMMGAVLIGETDLEETFENLILNQMNLSSYGEDLLDPNIDIEDYFD | – | Km (purified protein): 1472.1 ± 105.0 µM
PYROXD1 Y498A (enzyme, human, human PYROXD1 (UniProt Q8WU10) with Y498A; source: E. coli BL21(DE3), purified (Glutathione Sepharose, 3C cleavage, SEC); not shown: GST, N-terminal, cleaved) MEAARPPPTAGKFVVVGGGIAGVTCAEQLATHFPSEDILLVTASPVIKAVTNFKQISKILEEFDVEEQSSTMLGKRFPNIKVIESGVKQLKSEEHCIVTEDGNQHVYKKLCLCAGAKPKLICEGNPYVLGIRDTDSAQEFQKQLTKAKRIMIIGNGGIALELVYEIEGCEVIWAIKDKAIGNTFFDAGAAEFLTSKLIAEKSEAKIAHKRTRYTTEGRKKEARSKSKADNVGSALGPDWHEGLNLKGTKEFSHKIHLETMCEVKKIYLQDEFRILKKKSFTFPRDHKSVTADTEMWPVYVELTNEKIYGCDFIVSATGVTPNVEPFLHGNSFDLGEDGGLKVDDHMHTSLPDIYAAGDICTTSWQLSPVWQQMRLWTQARQMGWYAAKCMAAASSGDSIDMDFSFELFAHVTKFFNYKVVLLGKYNAQGLGSDHELMLRCTKGREYIKVVMQNGRMMGAVLIGETDLEETFENLILNQMNLSSYGEDLLDPNIDIEDAFD | binds | –
PYROXD1 F499A (enzyme, human, human PYROXD1 (UniProt Q8WU10) with F499A; source: E. coli BL21(DE3), purified (Glutathione Sepharose, 3C cleavage, SEC); not shown: GST, N-terminal, cleaved) MEAARPPPTAGKFVVVGGGIAGVTCAEQLATHFPSEDILLVTASPVIKAVTNFKQISKILEEFDVEEQSSTMLGKRFPNIKVIESGVKQLKSEEHCIVTEDGNQHVYKKLCLCAGAKPKLICEGNPYVLGIRDTDSAQEFQKQLTKAKRIMIIGNGGIALELVYEIEGCEVIWAIKDKAIGNTFFDAGAAEFLTSKLIAEKSEAKIAHKRTRYTTEGRKKEARSKSKADNVGSALGPDWHEGLNLKGTKEFSHKIHLETMCEVKKIYLQDEFRILKKKSFTFPRDHKSVTADTEMWPVYVELTNEKIYGCDFIVSATGVTPNVEPFLHGNSFDLGEDGGLKVDDHMHTSLPDIYAAGDICTTSWQLSPVWQQMRLWTQARQMGWYAAKCMAAASSGDSIDMDFSFELFAHVTKFFNYKVVLLGKYNAQGLGSDHELMLRCTKGREYIKVVMQNGRMMGAVLIGETDLEETFENLILNQMNLSSYGEDLLDPNIDIEDYAD | binds | –
PYROXD1 D500A (enzyme, human, human PYROXD1 (UniProt Q8WU10) with D500A; source: E. coli BL21(DE3), purified (Glutathione Sepharose, 3C cleavage, SEC); not shown: GST, N-terminal, cleaved) MEAARPPPTAGKFVVVGGGIAGVTCAEQLATHFPSEDILLVTASPVIKAVTNFKQISKILEEFDVEEQSSTMLGKRFPNIKVIESGVKQLKSEEHCIVTEDGNQHVYKKLCLCAGAKPKLICEGNPYVLGIRDTDSAQEFQKQLTKAKRIMIIGNGGIALELVYEIEGCEVIWAIKDKAIGNTFFDAGAAEFLTSKLIAEKSEAKIAHKRTRYTTEGRKKEARSKSKADNVGSALGPDWHEGLNLKGTKEFSHKIHLETMCEVKKIYLQDEFRILKKKSFTFPRDHKSVTADTEMWPVYVELTNEKIYGCDFIVSATGVTPNVEPFLHGNSFDLGEDGGLKVDDHMHTSLPDIYAAGDICTTSWQLSPVWQQMRLWTQARQMGWYAAKCMAAASSGDSIDMDFSFELFAHVTKFFNYKVVLLGKYNAQGLGSDHELMLRCTKGREYIKVVMQNGRMMGAVLIGETDLEETFENLILNQMNLSSYGEDLLDPNIDIEDYFA | binds | –
PYROXD1 ∆500 (domain or fragment, human, UniProt Q8WU10 1-499, looked up, human PYROXD1 (UniProt Q8WU10), C-terminal truncation ∆500 (lacks the C-terminal residue Asp500); source: E. coli BL21(DE3), purified (Glutathione Sepharose, 3C cleavage, SEC); not shown: GST, N-terminal, cleaved) MEAARPPPTAGKFVVVGGGIAGVTCAEQLATHFPSEDILLVTASPVIKAVTNFKQISKILEEFDVEEQSSTMLGKRFPNIKVIESGVKQLKSEEHCIVTEDGNQHVYKKLCLCAGAKPKLICEGNPYVLGIRDTDSAQEFQKQLTKAKRIMIIGNGGIALELVYEIEGCEVIWAIKDKAIGNTFFDAGAAEFLTSKLIAEKSEAKIAHKRTRYTTEGRKKEARSKSKADNVGSALGPDWHEGLNLKGTKEFSHKIHLETMCEVKKIYLQDEFRILKKKSFTFPRDHKSVTADTEMWPVYVELTNEKIYGCDFIVSATGVTPNVEPFLHGNSFDLGEDGGLKVDDHMHTSLPDIYAAGDICTTSWQLSPVWQQMRLWTQARQMGWYAAKCMAAASSGDSIDMDFSFELFAHVTKFFNYKVVLLGKYNAQGLGSDHELMLRCTKGREYIKVVMQNGRMMGAVLIGETDLEETFENLILNQMNLSSYGEDLLDPNIDIEDYF | binds | –
PYROXD1 ∆E496 (enzyme, human, source: E. coli BL21(DE3), purified (Glutathione Sepharose, 3C cleavage, SEC); not shown: GST, N-terminal, cleaved) MEAARPPPTAGKFVVVGGGIAGVTCAEQLATHFPSEDILLVTASPVIKAVTNFKQISKILEEFDVEEQSSTMLGKRFPNIKVIESGVKQLKSEEHCIVTEDGNQHVYKKLCLCAGAKPKLICEGNPYVLGIRDTDSAQEFQKQLTKAKRIMIIGNGGIALELVYEIEGCEVIWAIKDKAIGNTFFDAGAAEFLTSKLIAEKSEAKIAHKRTRYTTEGRKKEARSKSKADNVGSALGPDWHEGLNLKGTKEFSHKIHLETMCEVKKIYLQDEFRILKKKSFTFPRDHKSVTADTEMWPVYVELTNEKIYGCDFIVSATGVTPNVEPFLHGNSFDLGEDGGLKVDDHMHTSLPDIYAAGDICTTSWQLSPVWQQMRLWTQARQMGWYAAKCMAAASSGDSIDMDFSFELFAHVTKFFNYKVVLLGKYNAQGLGSDHELMLRCTKGREYIKVVMQNGRMMGAVLIGETDLEETFENLILNQMNLSSYGEDLLDPNIDIDYFD | binds | –
